In general, pKd refers to the negative decadic logarithm of the Kd, by convention in mol/L.

pKd: −log10 of the molar value.

Common to all, as to assay: EMSA
For orientation: Mobility shift assays separate free from complexed probe on a gel.

The test system of data set [1] is Orc1 BAH Lid swap (Saccharomyces cerevisiae). Particulars: 10 mM Tris pH 7.5, 50 mM NaCl, 2.5% glycerol, 1 mM DTT, room temperature 30 min, 25 or 50 nM nucleosome, native PAGE 0.2x TBE.
Data set [2] concerns T1, Orc1 BAH WT (Saccharomyces cerevisiae).
T1 sequence: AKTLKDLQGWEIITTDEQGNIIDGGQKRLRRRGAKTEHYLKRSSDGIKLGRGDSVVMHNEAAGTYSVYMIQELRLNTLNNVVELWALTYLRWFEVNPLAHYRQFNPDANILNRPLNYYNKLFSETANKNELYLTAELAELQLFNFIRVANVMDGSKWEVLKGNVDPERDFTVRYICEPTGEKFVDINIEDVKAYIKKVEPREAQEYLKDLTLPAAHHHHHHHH
Particulars: apparent Kd, 10 mM Tris pH 7.5, 50 mM NaCl, 2.5% glycerol, 1 mM DTT, room temperature 30 min, 25 or 50 nM nucleosome, native PAGE 0.2x TBE.

The test system of data set [3] is Sir3 BAH D205N (Saccharomyces cerevisiae). Particulars: apparent Kd, 10 mM Tris pH 7.5, 50 mM NaCl, 2.5% glycerol, 1 mM DTT, room temperature 30 min, 25 or 50 nM nucleosome, native PAGE 0.2x TBE.
Data set [4] relates to Sir3 BAH D205Q (Saccharomyces cerevisiae). Particulars: apparent Kd, 10 mM Tris pH 7.5, 50 mM NaCl, 2.5% glycerol, 1 mM DTT, room temperature 30 min, 25 or 50 nM nucleosome, native PAGE 0.2x TBE.
For data set [5], the system named is Sir3 BAH Lid D205Q (Saccharomyces cerevisiae). Particulars: apparent Kd, 10 mM Tris pH 7.5, 50 mM NaCl, 2.5% glycerol, 1 mM DTT, room temperature 30 min, 25 or 50 nM nucleosome, native PAGE 0.2x TBE.
The subject of data set [6] is Orc1 BAH A2P (Saccharomyces cerevisiae). Particulars: 10 mM Tris pH 7.5, 50 mM NaCl, 2.5% glycerol, 1 mM DTT, room temperature 30 min; 25 or 50 nM nucleosome; native PAGE 0.2x TBE.
Data set [7] has as its system Orc1 BAH E95K (Saccharomyces cerevisiae). Particulars: apparent Kd; 10 mM Tris pH 7.5, 50 mM NaCl, 2.5% glycerol, 1 mM DTT, room temperature 30 min; 25 or 50 nM nucleosome; native PAGE 0.2x TBE.
Data set [8] concerns Orc1 BAH L79I (Saccharomyces cerevisiae). Particulars: 10 mM Tris pH 7.5, 50 mM NaCl, 2.5% glycerol, 1 mM DTT, room temperature 30 min; 25 or 50 nM nucleosome; native PAGE 0.2x TBE.
In data set [9] the test system is Orc1 BAH Q205D (Saccharomyces cerevisiae). Particulars: apparent Kd; 10 mM Tris pH 7.5, 50 mM NaCl, 2.5% glycerol, 1 mM DTT, room temperature 30 min; 25 or 50 nM nucleosome; native PAGE 0.2x TBE.
In data set [10] the test system is Orc1 BAH R202E (Saccharomyces cerevisiae). Particulars: 10 mM Tris pH 7.5, 50 mM NaCl, 2.5% glycerol, 1 mM DTT, room temperature 30 min; 25 or 50 nM nucleosome; native PAGE 0.2x TBE.
Setting [11] is: histone H4 K16ac (genetically encoded), DNA unmodified.

H4K16Q nucleosome (147 bp 601) had a negative logarithm of the Kd (pKd) in [1] (histone H4 K16Q (acetyl mimic), DNA unmodified) of 5.85.

With H4K16ac nucleosome (147 bp 601), the pKd in data set [1] (apparent Kd, histone H4 K16ac (genetically encoded), DNA unmodified) is 5.43; in [2] (setting [11]) it was 5.82; in data set [3] (setting [11]), 6.09; in [4] (setting [11]) it was 5.92; in data set [5] (setting [11]), 5.77.

Regarding WT nucleosome (147 bp 601, unmodified), the pKd in [6] was 5.72; in [7], 5.36; in data set [8], 6.40; in data set [1], 6.15; in data set [1] (apparent Kd, comparison set with H4K16ac) it was 6.22; in data set [9], 5.29. Moreover, the pKd was 5.89 in data set [2]; 5.96 in data set [2] (reference set for mutants); 6.66 in data set [3]; 6.52 in data set [4]; 6.00 in [5]. The substance further yielded a binding signal (fold decrease in affinity vs Orc1 WT) in [10] of 4.9.

These data come from paper PMC6602975.
